Measurements published in US20240025997A1 (NGM BIOPHARMACEUTICALS, published 2024).
Positions count from the first letter of the chain named. One block for each binder: values may come before it.

Assays:
soluble human ILT2-ECD [1] = target: T1, soluble human ILT2-ECD (human, UniProt Q8NHL6 24-461); assay: SPR (Biacore) as described in Example 3, low resolution parameters
T1 construct: also called LILRB1 extracellular domain
Description: (§1) The binding affinities of anti-ILT2 and anti-ILT4 antibodies were measured using a Biacore system (GE Healthcare LifeSciences). Equilibrium dissociation constant (KD) measurements were carried out with purified antibodies to evaluate their binding to human ILT2, human ILT4, and rhesus ILT2. Briefly, purified anti-ILT2 antibody 27F9, anti-ILT4 antibodies 47C8 and 48A5, and anti-ILT2/ILT4 antibodies 47H6, 51A1, 64A12, 73C4, and 73D1 were captured on a Sensor Chip Protein A (GE HealthCare). The surface of the Biacore Sensor Chip Protein A consists of a carboxymethylated dextran matrix with a recombinant Protein A variant covalently attached. Soluble human ILT2-ECD, human ILT4-ECD, or rhesus ILT2-ECD were injected at a flow rate of 30 μL/min at 25° C. The ILT2 or ILT4 proteins were used at concentrations ranging from 1.6-200 nM in PBS-P buffer with 2 fold dilutions. Kinetic data were collected over time and fit using the simultaneous global fit equation to yield affinity constants (KD values) for each antibody.
(§2) The binding affinities of the humanized antibodies to human ILT2 and human ILT4 were measured using a Biacore system as described herein. The binding affinities of antibodies Hz47H6.v2, Hz64A12, and Hz73D1.v1 are shown in Table 11 as compared with the parental antibodies.

soluble human ILT4-ECD [2] = target: T2, soluble human ILT4-ECD (human, UniProt Q8N423 22-460); assay: as above
T2 construct: also called LILRB2 extracellular domain
T2 sequence (Q8N423 other isoform, or with tags, fused parts or gaps): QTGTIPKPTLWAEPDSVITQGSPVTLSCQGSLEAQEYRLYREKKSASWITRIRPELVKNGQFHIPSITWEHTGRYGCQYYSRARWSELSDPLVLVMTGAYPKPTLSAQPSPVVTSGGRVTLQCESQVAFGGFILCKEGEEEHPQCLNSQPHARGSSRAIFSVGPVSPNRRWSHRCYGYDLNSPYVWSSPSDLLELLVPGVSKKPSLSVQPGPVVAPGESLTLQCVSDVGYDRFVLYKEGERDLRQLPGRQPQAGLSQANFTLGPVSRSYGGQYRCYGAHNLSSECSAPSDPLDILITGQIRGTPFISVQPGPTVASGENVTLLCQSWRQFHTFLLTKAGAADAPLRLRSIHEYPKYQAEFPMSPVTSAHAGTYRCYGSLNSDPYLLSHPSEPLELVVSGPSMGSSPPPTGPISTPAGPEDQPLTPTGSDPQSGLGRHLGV
Description: as §1, §2

soluble human ILT2-ECD [3] = target: T1, soluble human ILT2-ECD; assay: SPR (Biacore) as described in Example 3
Description: as §1, §2

soluble human ILT4-ECD [4] = target: T2, soluble human ILT4-ECD; assay: SPR (Biacore) as described in Example 3
Description: as §1, §2

soluble human ILT2-ECD [5] = target: T1, soluble human ILT2-ECD; assay: SPR (Biacore), antibody captured on Protein A chip, soluble ILT-ECD injected (1.6-200 nM), 25 C
Description: as §1

soluble human ILT4-ECD [6] = target: T2, soluble human ILT4-ECD; assay: as above
Description: as §1

soluble human ILT2-ECD [7] = target: T1, soluble human ILT2-ECD; assay: SPR (Biacore), antibody captured on Protein A chip, soluble ILT-ECD injected, 25 C, low resolution parameters
Description: as §1

soluble human ILT4-ECD [8] = target: T2, soluble human ILT4-ECD; assay: as above
Description: as §1

[9] = target: T3, cynomolgus monkey ILT2 on cells (cynomolgus monkey); assay: flow cytometry, fluorescently labelled antibody on CD14+ monocytes of cyno PBMC, donor Cyno 1, geometric MFI
T3 construct: also called cyno ILT2; ILT2 on cyno CD14+ monocytes
T3 sequence (chain, as listed by the source): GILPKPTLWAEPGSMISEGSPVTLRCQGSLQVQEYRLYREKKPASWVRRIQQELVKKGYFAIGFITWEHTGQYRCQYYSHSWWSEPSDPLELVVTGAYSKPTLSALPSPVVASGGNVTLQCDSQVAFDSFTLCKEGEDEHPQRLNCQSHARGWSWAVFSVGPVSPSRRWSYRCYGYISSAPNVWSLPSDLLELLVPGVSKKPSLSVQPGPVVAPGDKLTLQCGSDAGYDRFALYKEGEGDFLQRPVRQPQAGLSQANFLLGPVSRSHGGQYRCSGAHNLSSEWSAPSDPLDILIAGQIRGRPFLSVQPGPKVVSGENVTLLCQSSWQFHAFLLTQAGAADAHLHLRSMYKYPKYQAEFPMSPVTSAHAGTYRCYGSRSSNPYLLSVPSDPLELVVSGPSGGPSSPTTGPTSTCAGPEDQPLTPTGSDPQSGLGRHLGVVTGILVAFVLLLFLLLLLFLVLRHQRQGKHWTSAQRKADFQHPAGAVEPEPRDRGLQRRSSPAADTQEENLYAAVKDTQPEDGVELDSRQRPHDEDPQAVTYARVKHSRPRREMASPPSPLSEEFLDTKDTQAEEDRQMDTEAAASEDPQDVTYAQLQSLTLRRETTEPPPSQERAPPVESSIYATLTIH
Description: (§3) The binding of anti-ILT2/ILT4 antibodies to monocytes was evaluated. The binding of exemplary anti-ILT2/ILT4 antibody 73D1 and the humanized version Hz73D1.v1 to the CD14+ monocyte population of human and cyno PBMC were determined by flow cytometry analysis. Briefly, human or cyno PBMCs (from 2 donors each) were thawed, washed in media (RPMI, 10% FBS, L-glutamine, pen/strep), and resuspended in fresh media. PBMCs were stained with a cocktail of labeled antibodies to differentiate between the different cell types. 1×10⁶ cells/well were stained with fluorescently-labelled 73D1 or Hz73D1.v1 antibody and incubated on ice. The cells were washed with ice-cold reagents and immediately analyzed by flow cytometry. The geometric mean fluorescence intensity for CD14+ monocytes was calculated for each sample. […] For example, the 50% effective concentration (EC₅₀) of Hz73D1.v1 was 8.8 nM with human monocytes and 1.8 nM with cyno monocytes.

[10] = target: T3, cynomolgus monkey ILT2 on cells; assay: flow cytometry, fluorescently labelled antibody on CD14+ monocytes of cyno PBMC, donor Cyno 2, geometric MFI
Description: as §3

human ILT4 on cells = target: T4, human ILT4 on cells (human, UniProt Q8N423 22-597); assay: flow cytometry, fluorescently labelled antibody on immune cell subsets of PBMC / red-cell-depleted whole blood
T4 construct: also called LILRB2; human ILT4 expressed on 293T cells
T4 sequence (Q8N423 other isoform, or with tags, fused parts or gaps): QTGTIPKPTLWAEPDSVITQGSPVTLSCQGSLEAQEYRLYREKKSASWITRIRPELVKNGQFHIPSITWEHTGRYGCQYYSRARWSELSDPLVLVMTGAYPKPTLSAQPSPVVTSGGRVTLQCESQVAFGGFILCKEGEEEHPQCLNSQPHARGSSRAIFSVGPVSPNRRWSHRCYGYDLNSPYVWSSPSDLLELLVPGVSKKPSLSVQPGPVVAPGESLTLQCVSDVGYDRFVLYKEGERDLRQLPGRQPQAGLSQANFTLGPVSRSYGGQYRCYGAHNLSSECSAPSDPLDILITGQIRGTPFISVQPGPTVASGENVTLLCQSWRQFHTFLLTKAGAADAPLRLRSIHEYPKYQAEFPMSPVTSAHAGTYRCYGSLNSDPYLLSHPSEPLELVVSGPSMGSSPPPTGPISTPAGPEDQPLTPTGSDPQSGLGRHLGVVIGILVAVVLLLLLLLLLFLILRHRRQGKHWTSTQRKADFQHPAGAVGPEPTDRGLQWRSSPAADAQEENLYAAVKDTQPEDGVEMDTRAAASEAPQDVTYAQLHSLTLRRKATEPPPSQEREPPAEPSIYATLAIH
Description: Flow cytometry analysis of blood immune cells was performed on human and cyno PBMC and whole blood. PBMC were prepared from a leukopak (Allcells Inc.) by centrifugation through ficoll, washing with PBS and freezing in cryopreservation buffer in liquid nitrogen until use. Whole blood (Allcells Inc.) was obtained fresh and red blood cells (RBC) depleted using ammonium chloride RBC lysing solution (Biolegend). PBMC or whole blood samples were stained with a fluorescently labeled antibody panel to distinguish various immune subsets (monocytes, B cells, NK cells, CD4+ and CD8+ T cells, neutrophils and eosinophils). Samples were further stained with fluorescently labeled isotype, 27F9 (ILT2 specific), 48A5 (ILT4 specific), 73D1, and Hz73D1.v1. The number of ILT2 and ILT4 molecules per cell of each immune subset was estimated by incubation with Quantum Simply Cellular microspheres followed by flow cytometry analysis.

T1 sequence (Q8NHL6 24-461): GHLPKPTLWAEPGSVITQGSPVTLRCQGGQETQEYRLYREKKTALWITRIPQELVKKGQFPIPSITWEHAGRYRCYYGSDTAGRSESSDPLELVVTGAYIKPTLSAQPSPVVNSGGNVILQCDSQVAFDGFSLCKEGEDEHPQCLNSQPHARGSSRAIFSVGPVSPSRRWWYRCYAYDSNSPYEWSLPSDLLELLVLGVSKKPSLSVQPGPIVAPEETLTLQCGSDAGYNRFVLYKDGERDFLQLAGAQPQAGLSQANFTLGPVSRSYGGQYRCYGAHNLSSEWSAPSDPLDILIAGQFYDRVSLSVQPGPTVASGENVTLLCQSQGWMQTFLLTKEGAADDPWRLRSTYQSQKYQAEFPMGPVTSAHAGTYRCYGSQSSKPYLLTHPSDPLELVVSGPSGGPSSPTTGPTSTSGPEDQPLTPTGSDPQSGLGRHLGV

B1: humanized anti-ILT2/ILT4 antibody Hz64A12 (antibody, human IgG1, kappa, N297G, V domains shown)
VH: EVQLVESGGGLVQPGGSLRLSCAASGFTFNTYAMHWVRQAPGKGLEWVARIRSKSSNYATYYADSVKDRFTISRDDAKNSLYLQMNSLRAEDTAVYYCARDGIYYYDTMYYYAMDYWGQGTLVTVSS
VL: NIVLTQSPDSLAVSLGERATINCRASESVDYYGNSFIYWYQQKPGQPPKLLIYFASNLESGVPDRFSGSGSGTDFTLTISSLQAEDVAVYYCQQNNEDPWTFGGGTKVEIKR
notes: Human IgG1 constant region with G at position 297, human kappa
Kd (soluble human ILT2-ECD [1]): 1.6 nM
koff (soluble human ILT2-ECD [1]): 0.00014 s⁻¹
kon (soluble human ILT2-ECD [1]): 93000 M⁻¹ s⁻¹
Kd (soluble human ILT4-ECD [2]): < 0.1 nM
koff (soluble human ILT4-ECD [2]): ~1e-05 s⁻¹
kon (soluble human ILT4-ECD [2]): 300000 M⁻¹ s⁻¹

B4: anti-ILT2/ILT4 antibody 73C4 (antibody, V domains shown)
VH: AVQLQQSGPELVKPGASVKISCKASGYTFTDYYMNWVKQSHGKSLEWIGNVNPNNGGTSYNQKFKGKATLTVDKSSSTAYMELRSLTSEDSAVYYCARREIYFYGTIYYYAMDYWGQGTSVTVSS
VL: DIVLTQSPASLAVSLGQRATISCRASESVDYYGNSFMYWYQQKPGRPPNLLIYFASNLESGVPARFSGSGSRTDFTLTIDPVEADDAATYYCQQNNEDPWTFGGGTKLEIK
notes: Mouse hybridoma antibody
Kd (soluble human ILT2-ECD [7]): < 0.1 nM
koff (soluble human ILT2-ECD [7]): ~1e-05 s⁻¹
kon (soluble human ILT2-ECD [7]): 31000 M⁻¹ s⁻¹
Kd (soluble human ILT4-ECD [8]): < 0.1 nM
koff (soluble human ILT4-ECD [8]): ~1e-05 s⁻¹
kon (soluble human ILT4-ECD [8]): 97000 M⁻¹ s⁻¹

B5: anti-ILT2/ILT4 antibody 51A1 (antibody, V domains shown)
VH: EVQLVESGGGLVQPKGSLKLSCAASGFTFNTYAMHWVRQAPGKGLEWVARIRSKSSNYATYYADSVKDRFTISRDDSQSMLYLQMNNLKTEDTAMYYCVRDGIYYYGTMYYYAMDYWGQGTSVTVSS
VL: B4 VL with D1N, R46Q, N49K, D85A, T89S
notes: Mouse hybridoma antibody
Kd (soluble human ILT2-ECD [5]): 5.8 nM
koff (soluble human ILT2-ECD [5]): 0.00022 s⁻¹
kon (soluble human ILT2-ECD [5]): 39000 M⁻¹ s⁻¹
Kd (soluble human ILT4-ECD [6]): 0.2 nM
koff (soluble human ILT4-ECD [6]): 1.4e-05 s⁻¹
kon (soluble human ILT4-ECD [6]): 68000 M⁻¹ s⁻¹

Other lines, results leading:

Kd (soluble human ILT2-ECD [3]): 4 nM
koff (soluble human ILT2-ECD [3]): 0.0009 s⁻¹
kon (soluble human ILT2-ECD [3]): 230000 M⁻¹ s⁻¹
Kd (soluble human ILT4-ECD [4]): 2 nM
koff (soluble human ILT4-ECD [4]): 0.00018 s⁻¹
kon (soluble human ILT4-ECD [4]): 87000 M⁻¹ s⁻¹
B2: humanized anti-ILT2/ILT4 antibody Hz47H6.v2 (antibody, human IgG1, kappa, N297G, V domains shown)
VH: QVQLVQSGAEVKKPGASVKVSCKASGYTFTDYYMNWVRQAPGQRLEWIGDFNPNNAGTTYNQKFEGRVTITVDKSASTAYMELSSLRSEDTAVYYCARGRFYYGSLYSFDYWGQGTLVTVSS
VL: DIQMTQSPSSLSASVGDRVTITCRASGNIHNYLAWYQQKPGKAPKLLIYNAKTLADGVPSRFSGSGSGTDFTLTISSLQPEDFATYYCQHFWTSITFGPGTKVDIKR

Kd (soluble human ILT2-ECD [3]): 0.2 nM
koff (soluble human ILT2-ECD [3]): 2.1e-05 s⁻¹
kon (soluble human ILT2-ECD [3]): 100000 M⁻¹ s⁻¹
Kd (soluble human ILT4-ECD [4]): 0.2 nM
koff (soluble human ILT4-ECD [4]): 2.1e-05 s⁻¹
kon (soluble human ILT4-ECD [4]): 100000 M⁻¹ s⁻¹
Kd (soluble human ILT2-ECD [5]): 2.1 nM
koff (soluble human ILT2-ECD [5]): 8.6e-05 s⁻¹
kon (soluble human ILT2-ECD [5]): 42000 M⁻¹ s⁻¹
Kd (soluble human ILT4-ECD [6]): 0.76 nM
koff (soluble human ILT4-ECD [6]): 2.8e-05 s⁻¹
kon (soluble human ILT4-ECD [6]): 37000 M⁻¹ s⁻¹
B3: anti-ILT2/ILT4 antibody 47H6 (antibody, V domains shown)
VH: EVQLQQSGPELVKPGASVKISCKASGYTFTDYYMNWVKQSHGKSLEWIGDFNPNNGGTTYNQKFEGKATLTVDKSSNTAYMDLRSLTSEDSAVYYCARGRFYYGSLYSFDYWGQGTTLTVSS
VL: DIQMTQSPASLSASVGETVTITCRASGNIHNYLAWYQQKQGKSPHLLVYNAKTLADGVPSRFSGSGSGTQYSLKINNLQPEDFGSYYCQHFWTSITFGAGTKLDLK
notes: Mouse hybridoma antibody

Kd (soluble human ILT2-ECD [1]): < 0.1 nM
koff (soluble human ILT2-ECD [1]): ~1e-05 s⁻¹
kon (soluble human ILT2-ECD [1]): 20000 M⁻¹ s⁻¹
Kd (soluble human ILT4-ECD [2]): < 0.1 nM
koff (soluble human ILT4-ECD [2]): ~1e-05 s⁻¹
kon (soluble human ILT4-ECD [2]): 82000 M⁻¹ s⁻¹
Kd (soluble human ILT2-ECD [7]): < 0.1 nM
koff (soluble human ILT2-ECD [7]): ~1e-05 s⁻¹
kon (soluble human ILT2-ECD [7]): 20000 M⁻¹ s⁻¹
Kd (soluble human ILT4-ECD [8]): < 0.1 nM
koff (soluble human ILT4-ECD [8]): ~1e-05 s⁻¹
kon (soluble human ILT4-ECD [8]): 82000 M⁻¹ s⁻¹
B6: anti-ILT2/ILT4 antibody 64A12 (antibody, V domains shown)
VH: B5 VH with G107D
VL: B4 VL with D1N, M37I, R46Q, N49K, D85A, T89S
notes: Mouse hybridoma antibody

Kd (soluble human ILT2-ECD [3]): 1.8 nM
koff (soluble human ILT2-ECD [3]): 0.00024 s⁻¹
kon (soluble human ILT2-ECD [3]): 150000 M⁻¹ s⁻¹
Kd (soluble human ILT4-ECD [4]): 0.74 nM
koff (soluble human ILT4-ECD [4]): 0.0003 s⁻¹
kon (soluble human ILT4-ECD [4]): 400000 M⁻¹ s⁻¹
Kd (soluble human ILT2-ECD [5]): 1.2 nM
koff (soluble human ILT2-ECD [5]): 6e-05 s⁻¹
kon (soluble human ILT2-ECD [5]): 50000 M⁻¹ s⁻¹
Kd (soluble human ILT4-ECD [6]): 0.18 nM
koff (soluble human ILT4-ECD [6]): 5.4e-05 s⁻¹
kon (soluble human ILT4-ECD [6]): 300000 M⁻¹ s⁻¹
EC50 (read off the curve) [9]: ~0.7 nM
EC50 (read off the curve) [10]: ~0.9 nM
binding result (human ILT4 on cells): binds
B7: anti-ILT2/ILT4 antibody 73D1 (antibody, V domains shown)
VH: B4 VH with M34I, E46Q, N55D, S59T
VL: B4 VL
notes: Mouse hybridoma antibody; Shares its light chain variable region with 73C4
